The assay concerns the target Na/K-ATPase α1-β2 (ATP1A1 with ATP1B2) (human, UniProt P05023-1 1-1023; P14415 1-290). Kind of assay: binding to transfected cells, Western blot of washed cell pellets. (In western blotting, separated proteins are transferred to a membrane and probed.)

Data on one molecule can be found in article PMC5531734 (Molecular Biology of the Cell, 2017).

B1: retinoschisin (natural protein)
chain: STEDEGEDPWYQKACKCDCQGGPNALWSAGATSLDCIPECPYHKPLGFESGEVTPDQITCSNPEQYVGWYSSWTANKARLNSQGFGCAWLSKFQDSSQWLQIDLKEIKVISGILTQGRCDIDEWMTKYSVQYRTDERLNWIYYKDQTGNNRVFYGNSDRTSTVQNLLRPPIISRFIRLIPLGWHVRIAIRMELLECVSKCA
For B1, the “retinoschisin binding relative to α3-β2 (densitometry)” value is 1.5 fold of binding to α3-β2.
